Results from US20090018093.
pIC50, pKd: −log10 of the molar value.

Experiments:
[1] = target: T1, Immunoglobulin E (IgE) (Macaca fascicularis) (UniProt A0A7N9DC98); assay: inhibition
T1 sequence: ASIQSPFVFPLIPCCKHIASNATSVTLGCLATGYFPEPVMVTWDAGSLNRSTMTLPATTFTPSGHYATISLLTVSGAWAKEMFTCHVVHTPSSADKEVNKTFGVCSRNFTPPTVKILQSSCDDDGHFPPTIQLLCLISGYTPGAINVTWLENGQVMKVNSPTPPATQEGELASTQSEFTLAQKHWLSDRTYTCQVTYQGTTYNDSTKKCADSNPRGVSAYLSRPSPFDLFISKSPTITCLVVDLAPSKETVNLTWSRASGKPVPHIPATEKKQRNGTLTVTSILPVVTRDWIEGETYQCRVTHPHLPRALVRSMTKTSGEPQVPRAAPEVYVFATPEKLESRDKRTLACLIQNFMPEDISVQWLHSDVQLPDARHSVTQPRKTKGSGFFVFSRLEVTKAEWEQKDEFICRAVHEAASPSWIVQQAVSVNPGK

[2] = tested on: Immunoglobulin E (IgE) (Homo sapiens), P01854-1; assay: filter
[3] = tested on: Immunoglobulin E (IgE) (Homo sapiens), P01854-1; assay: FP_none; conditions: 2'-OMe G2 and all C,U, rest 2'-deoxy, 3' idT [2'-OMe at 2,3,4,5,11,12,13,15,22,23, 3'-idT at 24]
[4] = tested on: Immunoglobulin E (IgE) (Homo sapiens), P01854-1; assay: inhibition
[5] = target: T2, Immunoglobulin E (IgE), cynomolgus (Macaca fascicularis) (UniProt A0A7N9DC98); assay: inhibition; conditions: 2'-F C,U; no inhibition of monkey IgE-FceR1 up to 1 uM
T2 sequence: T1 sequence

[6] = tested on: Immunoglobulin E (IgE) (Homo sapiens), P01854-1; assay: FP; conditions: 2'-F C and U; nitrocellulose dot blot filter, not fluorescence; biphasic, KD2 12.5 nM; 1xSHMCK + 0.1 mg/mL tRNA, RT
[7] = 2'-OMe C,U, deoxy A,G, FACS, 15 nM IgE
[8] = dRmY: 2'-deoxy A,G, 2'-OMe C,U, 1xPBS, BSA, tRNA, ssDNA, 25 C
[9] = 3' idT, no inhibition of monkey IgE:FceR1a-Fc up to 250 nM

Chain of Immunoglobulin E (IgE) (Homo sapiens), P01854-1 (P01854 other isoform, or with tags, fused parts or gaps): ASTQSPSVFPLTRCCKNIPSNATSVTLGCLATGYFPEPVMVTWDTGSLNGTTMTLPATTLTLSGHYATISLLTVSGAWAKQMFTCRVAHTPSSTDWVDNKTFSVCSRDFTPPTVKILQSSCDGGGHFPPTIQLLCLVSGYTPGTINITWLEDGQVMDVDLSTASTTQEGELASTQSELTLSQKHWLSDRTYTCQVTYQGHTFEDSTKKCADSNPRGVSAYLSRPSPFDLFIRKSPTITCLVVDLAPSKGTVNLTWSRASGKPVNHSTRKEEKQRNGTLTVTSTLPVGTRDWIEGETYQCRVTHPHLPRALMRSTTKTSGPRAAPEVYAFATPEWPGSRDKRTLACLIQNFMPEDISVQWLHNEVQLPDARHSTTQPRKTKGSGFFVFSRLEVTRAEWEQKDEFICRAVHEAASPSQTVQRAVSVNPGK

Sequence: AGCCUGGGGACCCAUGGGGGGCU [ARC445]
- pIC50 ([1]; dRmY: 2'-deoxy A,G, 2'-OMe C,U, ELISA, monkey IgE:FceR1a-Fc, human IC50 63 nM in same assay): 6.79
- pKd ([2]; dRmY: 2'-deoxy A,G, 2'-OMe C,U, dPBS Ca/Mg + 0.1 mg/mL BSA, RT, 22 nM in PBS with tRNA + ssDNA (Table 10)): 8.52

Sequence: AGCCUGGGGACCCAUGGGGGGCU [ARC1251]
- pKd [3]: 8.15

Sequence: AGCCUGGGGACCCAUGGGGGGCU [ARC1643]
- pIC50 ([4]; 2'-OMe/2'-deoxy mix, dI20, PS, 3' idT [20=dI (G parent), 24=3' inverted dT, phosphorothioate linkage N's left out (5^6, 7^8, 8^9, 15^16, 17^18, 18^19, 19^20, 20^21)], FACS, 2.5 nM IgE): 8.10
- pKd ([2]; 2'-OMe/2'-deoxy mix, dI20, PS, 3' idT [20=dI (G parent), 24=3' inverted dT, phosphorothioate linkage N's left out (5^6, 7^8, 8^9, 15^16, 17^18, 18^19, 19^20, 20^21)], DPBS Mg/Ca, 0.1 mg/mL BSA, RT): 8.96

Sequence: AGCCUGGGGACCCAUGGGGGGCU [ARC1644]
- pIC50 ([4]; 2'-OMe/2'-deoxy mix, dI16,dI20, PS, 3' idT [16=dI, 20=dI (G parent), 24=3' inverted dT, phosphorothioate linkage N's left out (5^6, 7^8, 8^9, 15^16, 17^18, 18^19, 19^20, 20^21)], FACS, 2.5 nM IgE): 8.28
- pKd ([2]; 2'-OMe/2'-deoxy mix, dI16,dI20, PS, 3' idT [16=dI, 20=dI (G parent), 24=3' inverted dT, phosphorothioate linkage N's left out (5^6, 7^8, 8^9, 15^16, 17^18, 18^19, 19^20, 20^21)], DPBS Mg/Ca, 0.1 mg/mL BSA, RT): 8.77

Sequence: AGCCUGGGGACCCAUGGGGGGCU [ARC1666]
- pIC50 ([1]; mAmGmCmCmUdGmGdG-s-dGmAmCmCmCmAmU-s-dI-s-mGdI-s-dGdI-s-dGmCmU-3T [2'-OMe 1-5,7,10-15,17,22,23, dI16,dI18,dI20 (inosine, parent base G), phosphorothioate 8/9,15/16,16/17,18/19,20/21 (N linkage letters left out), 3' inverted dT24], ELISA, monkey IgE:FceR1a-Fc, human IC50 5 nM in same assay): 8.10
- pKd ([2]; mAmGmCmCmUdGmGdG-s-dGmAmCmCmCmAmU-s-dI-s-mGdI-s-dGdI-s-dGmCmU-3T [2'-OMe 1-5,7,10-15,17,22,23, dI16,dI18,dI20 (inosine, parent base G), phosphorothioate 8/9,15/16,16/17,18/19,20/21 (N linkage letters left out), 3' inverted dT24], dPBS Ca/Mg + BSA, RT, 0.06 nM in Table 23): 10.46

Sequence: AGCCUGGGGACCCAUGGGGGGCU [ARC1667]
- pIC50 ([4]; 2'-OMe/2'-deoxy mix, dI18,dI20, PS as printed, 3' idT [18=dI, 20=dI (G parent), 24=3' inverted dT, phosphorothioate linkage N's left out], FACS, 2.5 nM IgE): 8.64
- pKd ([2]; 2'-OMe/2'-deoxy mix, dI18,dI20, PS as printed, 3' idT [18=dI, 20=dI (G parent), 24=3' inverted dT, phosphorothioate linkage N's left out], DPBS Mg/Ca, 0.1 mg/mL BSA, RT): 9.40

Sequence: AGCCUGGGGACCCAUGGGGGGCU [ARC1728]
- pIC50 ([4]; 2'-OMe/2'-deoxy mix, dI, PS, 3' idT [18=dI, 20=dI (G parent), 24=3' inverted dT, phosphorothioate linkage N's left out (5^6, 7^8, 8^9, 15^16, 17^18, 18^19, 19^20, 20^21)], FACS, 2.5 nM IgE): 7.88
- pKd ([2]; 2'-OMe/2'-deoxy mix, dI, PS, 3' idT [18=dI, 20=dI (G parent), 24=3' inverted dT, phosphorothioate linkage N's left out (5^6, 7^8, 8^9, 15^16, 17^18, 18^19, 19^20, 20^21)], DPBS Mg/Ca, 0.1 mg/mL BSA, RT): 8.64

Sequence: AGCCUGGGGACCCAUGGGGGGCU [ARC1729]
- pIC50 ([4]; 2'-OMe/2'-deoxy mix, dI16,dI18,dI20, PS as printed, 3' idT [16=dI, 18=dI, 20=dI (G parent), 24=3' inverted dT, 2'-OMe at 1-5,7,10-15,17,22,23, phosphorothioate linkage N's left out (5^6, 7^8, 8^9, 15^16, 17^18, 18^19, 19^20, 20^21)], FACS, 2.5 nM IgE): 8.54
- pKd ([2]; 2'-OMe/2'-deoxy mix, dI16,dI18,dI20, PS as printed, 3' idT [16=dI, 18=dI, 20=dI (G parent), 24=3' inverted dT, 2'-OMe at 1-5,7,10-15,17,22,23, phosphorothioate linkage N's left out (5^6, 7^8, 8^9, 15^16, 17^18, 18^19, 19^20, 20^21)], DPBS Mg/Ca, 0.1 mg/mL BSA, RT): 9.00

Sequence: AGUUCUGGGGACCCAUGGGGGAACU [ARC443]
- pIC50 [4, 7]: 7.52
- pKd [2, 8]: 7.26

Sequence: GCCUGGGGACCCAUGGGGGGC [ARC444]
- pIC50 [4, 7]: 7.28
- pKd [2, 8]: 7.14

Sequence: GGAAAAGCGAAUCAUACACAAGAGUCGCGAUAGAUUGCUUGUGAAUGGUUUUGGUGGAAGCGGGCUCCGCCAGAGACCAACCGAGAA [rRfY clone SEQ 12]
- pIC50 ([4]; 2'-F C,U, ELISA FceR1-Fc, FACS 7.1 nM (Table 25)): 8.30
- pKd ([2]; 2'-F C and U, biphasic, KD2 9.85 nM, 1xSHMCK + 0.1 mg/mL tRNA, RT): 10.24

Sequence: GGAAUCAUACACAAGACGUCGCCAGAUUGAGUGUCGUGGUUCC [rRfY minimer SEQ 91]
- pIC50 ([4]; 2'-F C,U, FACS, 15 nM IgE): 8.42
- pKd ([2]; 2'-F C and U, KD2 36.9 nM, 1xSHMCK + tRNA): 9.25

Sequence: GGAGAUCCGAGGGUGGGCAAUAGGCUCACAAGGGUUU [rRfY minimer SEQ 93]
- pIC50 ([4]; 2'-F C,U, FACS, 15 nM IgE): 7.90
- pIC50 [5]: < 6.00
- pKd ([2]; 2'-F C and U, KD2 17.1 nM, 1xSHMCK + tRNA): 9.19

Sequence: GGCGGCAGCTTTATCCGTACCTCCCAGTGGGCTGCTCC [DNA clone SEQ 149 with 3' idT]
- pIC50 [1, 9]: < 6.60

Sequence: GGCGGCAGCTTTATCCGTACCTCCCAGTGGGCTGCTCC [DNA clone SEQ 149]
- pIC50 ([4]; FACS, 15 nM IgE): 7.25
- pKd [2]: 9.10

Sequence: GGGAAAAGCGAAUCAUACACAAGACGUCAGUAAGAUUGAGUGUAUGGUUCCUGGUGGACAAUAAUGGCUCCGCCAGAGACCAACCGAGAA [rRfY clone SEQ 21]
- pIC50 ([4]; 2'-F C,U, ELISA FceR1-Fc, FACS 14.4 nM (Table 25)): 8.43
- pKd ([2]; 2'-F C and U, biphasic, KD2 27.1 nM, 1xSHMCK + tRNA, RT): 9.74

Sequence: GGGAAAAGCGAAUCAUACACAAGACGUCGCCAGAUUGAGUGUCGUGGUU [rRfY minimer SEQ 90]
- pIC50 [5]: < 6.00
- pKd ([2]; 2'-F C and U, KD2 28.2 nM, 1xSHMCK + 0.1 mg/mL tRNA): 9.48

Sequence: GGGAAAAGCGAAUCAUACACAAGACGUCGCCAGAUUGAGUGUCGUGGUUCGGGUUGAGGCGGAAGCUCCGCCAGAGACCAACCGAGAA [rRfY clone SEQ 11]
- pIC50 ([4]; 2'-F C,U, ELISA FceR1-Fc, FACS 14 nM (Table 25)): 8.59
- pKd [6]: 9.84

Sequence: GGGAAAAGCGAAUCAUACACAAGAGGUCUUACAGAUCCUGUGUAGUGGUUCGAUACAUGCGGGGCUCCGCCAGAGACCAACCGAGAA [rRfY clone SEQ 14]
- pIC50 ([4]; 2'-F C,U, ELISA FceR1-Fc, FACS 17.3 nM (Table 25)): 7.57
- pKd ([2]; 2'-F C and U, biphasic, KD2 99.5 nM, 1xSHMCK + tRNA, RT): 8.97

Sequence: GGGAAAAGCGAAUCAUACACAAGAGUCGCUAGAUUGCUAGUGUAUGGUUUAUCUAAAGGCGGCCGCUCCGCCAGAGACCAACCGAGAA [rRfY clone SEQ 13]
- pIC50 ([4]; 2'-F C,U, ELISA FceR1-Fc, FACS 10.3 nM (Table 25)): 8.37
- pKd ([2]; 2'-F C and U, biphasic, KD2 14.6 nM, 1xSHMCK + tRNA, RT): 9.86

Sequence: GGGAAAAGCGAAUCAUACACAAGAGUGCCGAGGCAUUGCUUGGUAUGGUUCCGGUCUUGUCGGGGCUCCGCCAGAGACCAACCGAGAA [rRfY clone SEQ 19]
- pIC50 ([4]; 2'-F C,U, ELISA FceR1-Fc, FACS 9.9 nM (Table 25)): 8.13
- pKd ([2]; 2'-F C and U, biphasic, KD2 17.4 nM, 1xSHMCK + tRNA, RT): 10.02

Sequence: GGGAAAAGCGAAUCAUACACAAGAUCCGAGGGUGGGCAAUAGGCUCACAAGGGUUUCGCGUGAUGCUCCGCCAGAGACCAACCGAGAA [rRfY clone SEQ 18]
- pIC50 ([4]; 2'-F C,U, ELISA FceR1-Fc, FACS 35 nM (Table 25)): 7.29
- pKd ([2]; 2'-F C and U, biphasic, KD2 27.3 nM, 1xSHMCK + tRNA, RT): 8.94

Sequence: GGGGCTACTTTATCCGTACCTCCCAGTGGGTAGCCCC [ARC476]
- pIC50 ([4]; FACS, 15 nM IgE): 7.76
- pKd [2]: 9.70

Sequence: GGGGCTACTTTATCCGTCCCTCCTAGTGGGTAGCCCC [ARC475 with 3' idT]
- pIC50 [1, 9]: < 6.60

Sequence: GGGGCTACTTTATCCGTCCCTCCTAGTGGGTAGCCCC [ARC475]
- pIC50 ([4]; FACS, 15 nM IgE): 7.77
- pKd [2]: 9.30

Sequence: GGGGCTACTTTATCCGTTCCTCCTAGTGGGTAGCCCC [ARC480]
- pIC50 ([4]; FACS, 15 nM IgE): 8.01
- pKd [2]: 9.70

Sequence: GGGGCTACTTTATCCGTTCCTCTTAGTGGGTAGCCCC [ARC479]
- pIC50 ([4]; FACS, 15 nM IgE): 7.84
- pKd [2]: 9.40

Sequence: GUUCUGGGGACCCAUGGGGGAAC [ARC442]
- pIC50 [4, 7]: 7.23
- pKd ([2]; dRmY: 2'-deoxy A,G, 2'-OMe C,U, 1xPBS, BSA, 1 mg/mL tRNA, ssDNA, 25 C): 6.76

Sequence: UAGCCUGGGGACCCAUGGGGGGCUA [ARC446]
- pIC50 [4, 7]: 7.47
- pKd [2, 8]: 7.37
